Substitutions are numbered along the chain they refer to. Names may count otherwise.
B1: BidBH3 peptide (peptide)
peptide: SESQEDIIRNIARHLAQVGDSMDRSIPPGLVNGL
B2: BidBH3 A91R (peptide)
peptide: B1 peptide with A16R

Target: BaxΔC21 (UniProt Q07812 1-171, C62S | C126S)
Assay: SPR

Sequence of BaxΔC21 (Q07812 1-171 C62S/C126S): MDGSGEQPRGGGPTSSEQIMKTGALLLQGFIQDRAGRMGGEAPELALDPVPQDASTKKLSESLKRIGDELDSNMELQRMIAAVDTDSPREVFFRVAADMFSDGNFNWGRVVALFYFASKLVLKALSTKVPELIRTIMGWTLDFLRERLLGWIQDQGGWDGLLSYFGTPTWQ

| Binder | IC50 [nM] |
| --- | --- |
| B1 | 306 |
| B2 | 41 |

Reference: PMC4650713 (2015)
